According to patent US20220096654A1, “PYRROLOBENZODIAZEPINE-ANTIBODY CONJUGATES AND USES THEREOF” (ADC THERAPEUTICS SA, priority 2020, published 2022):

B1: YTH54.12-B7: rat IgG2b anti-CD45 antibody YTH54.12 conjugated to PBD drug-linker B7 (drawing 49) (conjugate)
heavy: EVQLVESGGGLVQPGGSMKLSCAASGFTFSDYYMAWVRQAPKKGLEWVASMSFAGSSTYYGDSVKGRFTISRDNAKTTLYLQMNSLRSEDTATYYCARMYTTDYYLYWYFDFWGPGTMVTVSSAQTTAPSVYPLAPGCGDTTSSTVTLGCLVKGYFPEPVTVTWNSGALSSDVHTFPAVLQSGLYTLTSSVTSSTWPSQTVTCNVAHPASSTKVDKKVERRNGGIGHKCPTCPTCHKCPVPELLGGPSVFIFPPKPKDILLISQNAKVTCVVVDVSEEEPDVQFSWFVNNVEVHTAQTQPREEQYNSTFRVVSALPIQHQDWMSGKEFKCKVNNKALPSPIEKTISKPKGLVRKPQVYVMGPPTEQLTEQTVSLTCLTSGFLPNDIGVEWTSNGHIEKNYKNTEPVMDSDGSFFMYSKLNVERSRWDSRAPFVCSVVHEGLHNHHVEKSISRPPGK
light: DVQMTQSPSYLAASPGESVSISCKASKSISNYLAWYQQKPGEANKILIYSGSTLQSGTPSRFSGSGSGTDFSLTIRNLEPEDFAVYYCQQYDEKPLTFGSGTKLEIKRADAAPTVSIFPPSMEQLTSGGATVVCFVNNFYPRDISVKWKIDGSEQRDGVLDSVTDQDSKDSTYSMSSTLSLTKVEYERHNLYTCEVVHKTSSSPVVKSFNRNEC
B2: YTH24.5-B7: rat IgG2b anti-CD45 antibody YTH24.5 conjugated to PBD drug-linker B7 (drawing 49) (conjugate)
heavy: QVNLLQSGAALVKPGASVKLSCKASSYTFTDYYIHWVKQSHGKTLEWIGYINPKSGFTNYNEKFRRKATLTVDKSTNTAYMDISRLTSEDSATYYCTRRTGVIPMDAWGQGASVTVSSAQTTAPSVYPLAPGCGDTTSSTVTLGCLVKGYFPEPVTVTWNSGALSSDVHTFPAVLQSGLYTLTSSVTSSTWPSQTVTCNVAHPASSTKVDKKVERRNGGIGHKCPTCPTCHKCPVPELLGGPSVFIFPPKPKDILLISQNAKVTCVVVDVSEEEPDVQFSWFVNNVEVHTAQTQPREEQYNSTFRVVSALPIQHQDWMSGKEFKCKVNNKALPSPIEKTISKPKGLVRKPQVYVMGPPTEQLTEQTVSLTCLTSGFLPNDIGVEWTSNGHIEKNYKNTEPVMDSDGSFFMYSKLNVERSRWDSRAPFVCSVVHEGLHNHHVEKSISRPPGK
light: DVVMTQTPVSLSVSLGGQVSISCRSSQSFVSSDGNTYLNWYLQKPGQSPQLLIYKVSNRLSGVPDRFSGSGSGTDFTLKISRVEHDDLGVYYCGQASKIPLTFGSGTKLEIKRADAAPTVSIFPPSMEQLTSGGATVVCFVNNFYPRDISVKWKIDGSEQRDGVLDSVTDQDSKDSTYSMSSTLSLTKVEYERHNLYTCEVVHKTSSSPVVKSFNRNEC

Tests used:
293T (CD45-) = experiment: Cell viability assay 5 days (PrestoBlue), 293T; type: cell-based, human; conditions: rat IgG2b ADC, n=3
Experimental: (§1) OCIM1, Jurkat and Nalm6 cells were seeded at a final concentration of 1.275×10^4/mL and for 5 days in presence of rat IgG2b Mab or ADC or medium (in triplicate) in wells of flat bottom 96-well plates. 293T cells were seeded at 9.3×10^3 cells per 100 uL per well in flat bottom 96-well plates and allowed to adhere the plate for up to 24 hours. 293T cells were subsequently cultured with rat IgG2b Mabs or ADC or medium (in triplicate wells) as described above. PrestoBlue® Cell viability Reagent (Thermo Fisher Scientific) was added to each and incubated for up to 1.5 hours. Fluorescence intensity from each well was detected using a FLUOstar OPTIMA microplate reader (BMG Labtech). Data was plotted using Prism 8.0 and sigmoid dose-response non-linear regression was used to determine EC50 values. Data points are mean±s.d. for representative experiments.

Nalm6 (CD45-) = experiment: Cell viability assay 5 days (PrestoBlue), Nalm6; type: cell-based, human; conditions: rat IgG2b ADC, n=3
Experimental: as §1

fLuc+ OCIM1 cells = experiment: AML model in NSG mice, treatment the day after cell injection; type: in vivo
Experimental: NSG mice were transplanted with 7.5×10^6 luciferase expressing fLuc+ OCIM1 cells i.v. On the following day, unconjugated rat IgG2b antibodies or ADCs were injected i.v. via a tail vein at a dose of 1 mg/kg or 5 mg/kg. Mice were regularly monitored for signs of morbidity for the duration of the experiment. For imaging, mice were injected intraperitoneally with 200 μl of 15 mg/mL D-luciferin (Regis Technologies) in PBS. Mice were subsequently anesthetized with 4% isoflurane and maintained at 2% isoflurane. Ten minutes after injection of D-luciferin, mice were placed with anterior side up inside a IVIS Lumina III (PerkinElmer). A sub-saturating image was captured using the auto-exposure setting in the Living Image software (v4.5). Quantification and preparation of images was also carried out using the same software.

Molecule | EC50 (293T (CD45-)) | EC50 (Nalm6 (CD45-)) | tumor (bioluminescence) signal (fLuc+ OCIM1 cells; 1 mg/kg or 5 mg/kg i.v. the day after OCIM1 injection) | mice developing tumor / tumor signal (fLuc+ OCIM1 cells; 1 mg/kg or 5 mg/kg i.v., cohorts of 5 mice)
B1 | > 6 nM | 1.56 nM |  | 
B2 | > 6 nM | 0.905 nM | Increasing tumor signal in three mice | 3/5
